Experimental data reported in patent US20210347891A1.
Positions count from the first letter of the chain named. Names may count otherwise. Each block holds one binder with its values, some of them ahead of it.

Tests used:
[1] = target: single chain FcRn-β2m-his (human scFcRn, Acro Biosystems Cat. No. FCM-H5286) (human) (UniProt P55899); test: SPR, antibody on CM5 chip, scFcRn 400-25 nM, pH 5.8 PBS
[2] = target: single chain FcRn-β2m-his (human scFcRn, Acro Biosystems Cat. No. FCM-H5286) (human) (UniProt P55899); test: SPR, antibody on CM5 chip, scFcRn, pH 5.8
[3] = target: single chain FcRn-β2m-his (human scFcRn, Acro Biosystems Cat. No. FCM-H5286) (human) (UniProt P55899); test: SPR, antibody on CM5 chip, scFcRn 400-25 nM, pH 5.8 PBS, 1:1 Langmuir

Chain of single chain FcRn-β2m-his (human scFcRn, Acro Biosystems Cat. No. FCM-H5286) (human) (P55899 other isoform, or with tags, fused parts or gaps): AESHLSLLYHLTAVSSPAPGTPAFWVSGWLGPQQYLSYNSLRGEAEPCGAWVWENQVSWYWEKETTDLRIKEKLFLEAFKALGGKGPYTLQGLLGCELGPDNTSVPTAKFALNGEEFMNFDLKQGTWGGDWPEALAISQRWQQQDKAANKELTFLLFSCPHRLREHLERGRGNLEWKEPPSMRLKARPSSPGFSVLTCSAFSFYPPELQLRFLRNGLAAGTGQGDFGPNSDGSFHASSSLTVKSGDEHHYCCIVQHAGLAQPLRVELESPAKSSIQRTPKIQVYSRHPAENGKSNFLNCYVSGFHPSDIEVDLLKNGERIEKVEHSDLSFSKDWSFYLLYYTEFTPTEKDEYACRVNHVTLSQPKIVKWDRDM

- Kd [1]: 2140 nM
B1: Herceptin-IgG2 (wild type IgG2 with the Fab of trastuzumab) (antibody, part only; not given: Fab (trastuzumab), not shown: another chain or arm of the molecule)
Fc: ERKCCVECPPCPAPPVAGPSVFLFPPKPKDTLMISRTPEVTCVVVDVSHEDPEVQFNWYVDGVEVHNAKTKPREEQFNSTFRVVSVLTVVHQDWLNGKEYKCKVSNKGLPAPIEKTISKTKGQPREPQVYTLPPSREEMTKNQVSLTCLVKGFYPSDISVEWESNGQPENNYKTTPPMLDSDGSFFLYSKLTVDKSRWQQGNVFSCSVMHEALHNHYTQKSLSLSPGK
modifications: Glycosylated at N297 (HEK293F expression). The Fc is a disulfide-linked homodimer in the full IgG.

- fold enhanced KD comparing with wild type IgG2 [2]: 5.7 fold
- Kd [3]: 377 nM
- koff [3]: 0.086 s⁻¹
- kon [3]: 227000 M⁻¹ s⁻¹
B2: Herceptin-IgG2-DHS (V309D, Q311H, N434S) (antibody, part only; not given: trastuzumab Fab, not shown: another chain or arm of the molecule)
Fc: B1 Fc with V90D, Q92H, N215S
modifications: Glycosylated at N297 (HEK293F expression). The Fc is a disulfide-linked homodimer in the full IgG.

- fold enhanced KD comparing with wild type IgG4 [2]: 3 fold
- Kd [3]: 832 nM
- koff [3]: 0.151 s⁻¹
- kon [3]: 281000 M⁻¹ s⁻¹
B3: Herceptin-IgG4-DHS (L309D, Q311H, N434S) (antibody, part only; not given: trastuzumab Fab, not shown: another chain or arm of the molecule)
Fc: ESKYGPPCPSCPAPEFLGGPSVFLFPPKPKDTLMISRTPEVTCVVVDVSQEDPEVQFNWYVDGVEVHNAKTKPREEQFNSTYRVVSVLTVDHHDWLNGKEYKCKVSNKGLPSSIEKTISKAKGQPREPQVYTLPPSQEEMTKNQVSLTCLVKGFYPSDIAVEWESNGQPENNYKTTPPVLDSDGSFFLYSRLTVDKSRWQEGNVFSCSVMHEALHSHYTQKSLSLSLGK
modifications: Glycosylated Fc homodimer (HEK293F); one chain is given.

- Kd [1]: 4080 nM
B4: Herceptin-IgG3 (wild type IgG3 with the Fab of trastuzumab) (antibody, part only; not given: trastuzumab Fab; H435 or R435 unclear, not shown: another chain or arm of the molecule)
Fc: ELKTPLGDTTHTCPRCPEPKSCDTPPPCPRCPEPKSCDTPPPCPRCPEPKSCDTPPPCPRCPAPELLGGPSVFLFPPKPKDTLMISRTPEVTCVVVDVSHEDPEVQFKWYVDGVEVHNAKTKPREEQYNSTFRVVSVLTVLHQDWLNGKEYKCKVSNKALPAPIEKTISKTKGQPREPQVYTLPPSREEMTKNQVSLTCLVKGFYPSDIAVEWESSGQPENNYNTTPPMLDSDGSFFLYSKLTVDKSRWQQGNIFSCSVMHEALHNHFTQKSLSLSPGK
modifications: Glycosylated Fc homodimer (HEK293F); one chain is given.

- fold enhanced KD comparing with wild type IgG3 [2]: 5.5 fold
- Kd [3]: 739 nM
- koff [3]: 0.126 s⁻¹
- kon [3]: 170000 M⁻¹ s⁻¹
B5: Herceptin-IgG3-DHS (L309D, Q311H, N434S) (antibody, part only; not given: trastuzumab Fab, not shown: another chain or arm of the molecule)
Fc: B4 Fc with L141D, Q143H, N266S
modifications: Glycosylated Fc homodimer (HEK293F); one chain is given.
